In the supplement of paper PMC10567573:
± gives the standard deviation.

Test: protein stability index of a GFP-peptide fusion (GPS, HEK-293T) (PSI 1-6); higher = more stable
[1] = treatment: DMSO, c terminus: a fixed tail appended
[2] = treatment: MLN4924 1 uM, 8 h, c terminus: a fixed tail appended
[3] = treatment: DMSO, c terminus: native
[4] = treatment: MLN4924 1 uM, 8 h, c terminus: native
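Further: 24-mer peptide tiles fused after GFP, lentivirally expressed, FACS-sorted into six equal bins by GFP/DsRed ratio, decoded by Illumina sequencing, PSI is the read-weighted mean bin number.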

Sequence | protein stability index [1] | protein stability index [2] | protein stability index [3] | protein stability index [4]
ARKRKNRRLKQAKEEAQAEIEQYR [ATP6V1G1] | 5.03 ± 0.38 | 5.13 ± 0.32 | – | –
KFSIPDLDRHQLPLDDALLSFAHA [DPCD] | 2.84 ± 0.21 | 2.94 ± 0.35 | – | –
CSFSIERILGLDQKKDCVPLMKPH [HESX1] | 2.33 ± 0.19 | 2.43 ± 0.23 | – | –
SEDQKRLKQAKELDRERAAANEQL [CHCHD3] | 5.48 ± 0.17 | 5.57 ± 0.21 | – | –
DLCPPIGRRAATALLWLSCSIALL [GNAS] | 2.59 ± 0.63 | 2.19 ± 0.28 | – | –
TIKHPGGAGAEESELQAYIAQCQD [MCOLN1] | 5.27 ± 0.2 | 5.23 ± 0.31 | – | –
TVETCRALGKLLPRETLCTELVLS [LRRC45] | 2.67 ± 0.25 | 2.55 ± 0.13 | – | –
AGWTLATLGEQGLPHQSHRQRSSL [SCNN1D] | 3.62 ± 0.21 | 3.75 ± 0.21 | – | –
YQAFRECTLETTVHASGWNKILVP [BCL2L13] | 1.93 ± 0.33 | 2.32 ± 0.22 | – | –
IHFDSYITCVSGAIVDLISRQYDK [FBXO33] | 2.7 ± 0.47 | 2.81 ± 0.53 | – | –
DKALMIAMEYAPGGTLAEFIQKRC [NEK8] | 2.39 ± 0.26 | 2.54 ± 0.17 | – | –
SRYLGDSGLDDFFLDIDTSAVEKE [SERTAD3] | 5.31 ± 0.12 | 4.9 ± 0.55 | – | –
LAEARRLFPGRVSVDLMLGLPAQQ [RSAD1] | 2.76 ± 0.25 | 2.7 ± 0.31 | – | –
HAVVEVEDVPLAAKLVDLPCVIES [TAF7L] | 3.86 ± 0.28 | 4.03 ± 0.17 | – | –
KSQRQPRTSPSCAFRSDDTKGHPR [CDC14A] | 4.49 ± 0.16 | 4.62 ± 0.2 | – | –
HMVKISGGPRISYPLLHEWALREG [MAGEA6] | 2.47 ± 0.23 | 2.46 ± 0.22 | – | –
VPVQPLLPESLARSLLPSTEYQKQ [FBF1] | 4.18 ± 0.18 | 4.58 ± 0.28 | – | –
TIGFGDYVALQTKGALQKKPLYVA [KCNK9] | 2.29 ± 0.19 | 2.63 ± 0.28 | – | –
AQVPPAAPHHHHHHSHSGPEISRI [PLK2] | 4.09 ± 0.073 | 4.1 ± 0.13 | – | –
PPSVLISKNEVGIFTTPNFDETSS [KMT2E] | 4.09 ± 0.12 | 4.33 ± 0.069 | – | –
ASLNIKTTVPEVEPPQDSHSRKTV [PRPH] | 5.21 ± 0.43 | 5.18 ± 0.21 | – | –
DSCCPAGIFQAMCLLICAEMYQVS [RHOBTB3] | 3.07 ± 0.12 | 3.02 ± 0.31 | – | –

Sequence | protein stability index [1] | protein stability index [2] | protein stability index [3] | protein stability index [4]
KNYNYGMHYCAVPPRGPLGQGAMF [NEUROD6] | 2.18 ± 0.44 | 2.47 ± 0.34 | – | –
PNIQEAVEGAMHIQECVPEDLELK [CRYL1] | 5.49 ± 0.13 | 5.57 ± 0.19 | – | –
EQFPELMNMLWSRMLKDNKKNWRR [CLINT1] | 2.14 ± 0.037 | 2.39 ± 0.26 | – | –
AAGRVCRPPGPAGTEQSRGLGHGS [CPOX] | 4.44 ± 0.25 | 4.53 ± 0.4 | – | –
ARALLEDDSDTQQVVVLVRDNGDP [PCDHGC5] | 4.82 ± 0.1 | 4.79 ± 0.46 | – | –
ASKKTAQPWVEVVLALRNMKNLLF [MFSD9] | 2.75 ± 0.73 | 2.57 ± 0.39 | – | –
RKFSRLSCLRRRRHPPKVGDDSDL [SMG5] | 4.08 ± 0.17 | 3.96 ± 0.28 | – | –
MKLFDSICNNKWFTDTSIILFLNK [GNAI1] | 2.6 ± 0.59 | 2.58 ± 0.59 | – | –
AACFDGRLDIVKYLVENNANISIA [FEM1B] | 2.38 ± 0.38 | 2.21 ± 0.38 | – | –
TYGRRAKGHNTPKDIAHFWELGGG [DYNC2LI1] | 2.84 ± 0.11 | 3.07 ± 0.18 | – | –
LLAEKEEKLQKEQKELQDVGQSLR [SASS6] | 5.45 ± 0.23 | 5.35 ± 0.28 | – | –
EPEAASSRGSPVRVKREFEPASAR [USP39] | 5.04 ± 0.16 | 5.11 ± 0.16 | – | –
TCLMISCYKGHKEIAQYLLEKGAD [FEM1C] | 2.29 ± 0.39 | 2.05 ± 0.27 | – | –
RRDAEEWFHAKSAELNKEVSTNTA [KRT13] | 4.71 ± 0.25 | 4.79 ± 0.1 | – | –
SVLKRPERSQEESPPGSTKRRKSM [CDC25A] | 5.29 ± 0.29 | 5.5 ± 0.2 | – | –
MDEISEKLKKGICEALEDSDGRQD [MATN2] | 5.42 ± 0.25 | 5.4 ± 0.17 | – | –
FGCFFYVYYIFERLCAPLFRNIKQ [SOAT1] | 2.37 ± 0.2 | 2.69 ± 0.068 | – | –
LLAIQFLEFFYGIATATEIAYYSY [SLC19A2] | 2.92 ± 1.3 | 3.13 ± 0.23 | – | –
YSRYLNEKAFSYRQMAFDFARVKK [SNAP91] | 2.28 ± 0.59 | 2.7 ± 0.16 | – | –
RSCAIVEDDGLQSAFTAAHELGHV [ADAMTS4] | 3.62 ± 0.43 | 3.55 ± 0.2 | – | –
ERSQVRGSAPPRATPGGGTGEAAR [PCDHGC5] | 5.13 ± 0.31 | 5.4 ± 0.18 | – | –
NGKTIEMDTQFTIRARELQNIYKC [IQUB] | 2.57 ± 1.1 | 2.8 ± 0.19 | – | –

Sequence | protein stability index [1] | protein stability index [2] | protein stability index [3] | protein stability index [4]
YEHYERVENGDFNWIVPGKFLAFS [CDC14A] | 2.34 ± 0.16 | 2.26 ± 0.29 | – | –
KIMIIICCVILGIVIASTVGGIFA [STX1A] | 2.04 ± 0.38 | 2.23 ± 0.41 | – | –
KPTRRDASPESPSKKGPIPIRRH [GNAS] | – | – | 4.71 ± 0.19 | 5.21 ± 0.49
ANGGAICAVTFFTILLSYGVILHS [OR4A15] | 2.79 ± 0.25 | 2.84 ± 0.31 | – | –
SSAPRDVQARMLSSTTILVQWKEP [PTPRD] | 2.83 ± 0.47 | 2.79 ± 0.15 | – | –
LSALLRATPGEYSVNICGMNEHPV [SPAG8] | 2.27 ± 0.27 | 2.42 ± 0.16 | – | –
LKLANHQRPVSRQVTCLRTQVLED [TRAF3IP2] | 3.49 ± 0.35 | 3.58 ± 0.27 | – | –
TKKLRLTKPSKSAALHIDLCKATS [INTS4] | 2.91 ± 0.17 | 3.13 ± 0.22 | – | –
AVEGAARTTPSRREITGVQAQPGE [PALM] | 5.22 ± 0.36 | 5.31 ± 0.28 | – | –
IKMILKMVQLDSIEDLEVTCTWKL [PRAME] | 2.89 ± 0.29 | 2.99 ± 0.42 | – | –
TACSLPLCACLLGQKMLRHCGRT [PXN] | – | – | 3.03 ± 0.76 | 2.28 ± 0.4
RTDPNGDYIRRYLPVLRGFPAKYI [CRY1] | 2.27 ± 0.3 | 2.42 ± 0.39 | – | –
VNYSDPNDADKAINTLNGLKLQTK [ELAVL3] | 4.66 ± 0.2 | 4.62 ± 0.12 | – | –
MLREPAEPVAAEPKQSGSFRYLQG [PDLIM4] | 4.18 ± 0.12 | 4.25 ± 0.17 | – | –
RTDLKDLIIFDKQSSQRMRQNLKL [CEP70] | 2.93 ± 0.24 | 2.93 ± 0.32 | – | –
RYDAEVVAIAQKFAALRASLVAPL [MYORG] | 2.55 ± 0.17 | 2.01 ± 0.17 | – | –
SGSRPRKPPPRKHTRSWAVLKLLL [LRRC59] | 2.39 ± 0.37 | 2.31 ± 0.28 | – | –
MLLSVSQSMSEEEREKVTPLMVKG [SEPHS2] | 3.83 ± 0.36 | 3.86 ± 0.43 | – | –
TILLDGQRVKLKLWDTSGQGRFCT [RAB40A] | 2.21 ± 0.13 | 2.21 ± 0.23 | – | –
GVSYTFDNEDSELNGDYGENIYPY [MIA2] | 3.93 ± 0.061 | 3.77 ± 0.55 | – | –
QSQSLRDRARRFEEALRKNTEEQL [MTUS2] | 4.88 ± 0.28 | 5.06 ± 0.18 | – | –
